Assay results: patent publication US20250041437A1 (SUN PHARMA ADVANCED RESEARCH, published 2025)
Numbering of substitutions follows the chain as printed.

B1: humanized IgG1 anti-MUC1-SEA mAb (HM5 LM4) (antibody, V domains shown)
VH: EIQLVQSGAEVKKPGSSVKVSCKVTGHSITRGSSWHWMRQAPGQGLEWIGYIHYGGGTSYNPSLKSRITITRDTSTNTFYMELSSLRSEDTAFYFCARYSYDITYRWFFDVWGQGTLVTVSS
VL: DIQMTQSPSTLSASVGDRVTITCRASQNIGTSIHWYQQKPGKAPKLLIKYASESISGVPSRFSGSGSGTEFTLTISSLQPDDFATYYCQQNNNWPLTFGQGTKVEIKR
notes: also called Humanized anti-MUC1 SEA IgG1; humanized IgG anti-MUC1-SEA mAb
B2: HM2 LM2 variant of humanized anti-MUC1 antibody SP66 (antibody, V domains shown)
VH: B1 VH with F79A
VL: DIQMTQSPSTLSASVGDRVTITCRASQNIGTSIHWYQQKPGKAPKLLIKRASESISGVPSRFSGSGSGTEFTLTISSLQPDDFATYYCQQNNNWPLTFGQGTKVEVK
notes: Humanized IgG expressed in CHO cells; only variable domains tied to the variant
B3: HM5 LM3 variant of humanized anti-MUC1 antibody SP66 (antibody, V domains shown)
VH: B1 VH
VL: B2 VL with R50Y
notes: as for B2
B4: HM4 LM3 variant of humanized anti-MUC1 antibody SP66 (antibody, V domains shown)
VH: B1 VH with I68A, I70L
VL: B2 VL with R50Y
notes: as for B2
B5: HM2 LM1 variant of humanized anti-MUC1 antibody SP66 (antibody, V domains shown)
VH: B1 VH with F79A
VL: B2 VL with Y36F
notes: as for B2
B6: HM4 LM2 variant of humanized anti-MUC1 antibody SP66 (antibody, V domains shown)
VH: B1 VH with I68A, I70L
VL: B2 VL
notes: as for B2
B7: HM5 LM2 variant of humanized anti-MUC1 antibody SP66 (antibody, V domains shown)
VH: B1 VH
VL: B2 VL
notes: as for B2
B8: HM3 LM2 variant of humanized anti-MUC1 antibody SP66 (antibody, V domains shown)
VH: B1 VH with I68A, I70L, F79A
VL: B2 VL
notes: as for B2

Target: T1, human MUC1 on cells (DA3-TM transfectants and human cancer cell lines SKOV3, COLO357, HT29 and others) (human, UniProt P15941 24-1255)
T1 construct: also called MUC1-SEA; surface MUC1
T1 sequence (P15941 24-1255 limits assumed): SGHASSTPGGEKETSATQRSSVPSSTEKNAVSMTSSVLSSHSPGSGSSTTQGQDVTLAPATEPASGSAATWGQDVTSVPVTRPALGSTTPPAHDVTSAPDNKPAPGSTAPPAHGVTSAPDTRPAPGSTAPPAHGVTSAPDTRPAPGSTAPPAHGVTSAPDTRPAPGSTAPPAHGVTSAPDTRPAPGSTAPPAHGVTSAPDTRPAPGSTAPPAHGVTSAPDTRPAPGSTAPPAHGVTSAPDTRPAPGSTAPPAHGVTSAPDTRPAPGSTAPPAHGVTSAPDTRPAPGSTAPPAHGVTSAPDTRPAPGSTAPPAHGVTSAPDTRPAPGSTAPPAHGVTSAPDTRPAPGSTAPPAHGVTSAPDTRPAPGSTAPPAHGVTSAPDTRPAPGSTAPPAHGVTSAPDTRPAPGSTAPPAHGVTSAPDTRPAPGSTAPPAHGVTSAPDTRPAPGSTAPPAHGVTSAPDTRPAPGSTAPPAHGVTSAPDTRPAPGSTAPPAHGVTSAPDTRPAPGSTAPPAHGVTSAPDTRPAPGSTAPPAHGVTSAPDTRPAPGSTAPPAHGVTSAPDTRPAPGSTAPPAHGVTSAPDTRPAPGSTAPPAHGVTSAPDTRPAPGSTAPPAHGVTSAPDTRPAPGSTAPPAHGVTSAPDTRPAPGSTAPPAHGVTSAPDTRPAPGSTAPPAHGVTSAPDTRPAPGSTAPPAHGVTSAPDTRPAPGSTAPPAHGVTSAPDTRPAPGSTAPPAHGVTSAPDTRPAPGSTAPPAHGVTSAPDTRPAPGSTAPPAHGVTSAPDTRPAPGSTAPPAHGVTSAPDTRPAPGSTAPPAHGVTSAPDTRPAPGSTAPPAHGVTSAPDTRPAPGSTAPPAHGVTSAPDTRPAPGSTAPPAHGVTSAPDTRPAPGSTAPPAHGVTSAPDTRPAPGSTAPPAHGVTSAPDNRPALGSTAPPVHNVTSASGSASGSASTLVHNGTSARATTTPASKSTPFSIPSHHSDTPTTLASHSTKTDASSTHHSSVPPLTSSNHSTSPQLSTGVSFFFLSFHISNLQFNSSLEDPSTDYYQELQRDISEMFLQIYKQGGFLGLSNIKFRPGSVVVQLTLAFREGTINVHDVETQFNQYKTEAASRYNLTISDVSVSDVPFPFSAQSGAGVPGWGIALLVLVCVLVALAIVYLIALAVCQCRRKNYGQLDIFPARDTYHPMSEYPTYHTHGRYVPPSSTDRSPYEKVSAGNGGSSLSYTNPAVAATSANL
Assay: flow cytometry, dose-dependent binding on MUC1 positive DA3-TM cells

| Binder | Kd [nM] |
| --- | --- |
| B1 | 1 |
| B2 | 3.2 |
| B3 | 0.9 |
| B4 | 1.5 |
| B5 | 14.5 |
| B6 | 2.1 |
| B7 | 1.4 |
| B8 | 3.7 |

Target: T1, human MUC1 on cells (DA3-TM …)
Assay: flow cytometry on SKOV-3 cells, geometric mean against concentration

| Binder | EC50 (read off the curve) [nM] |
| --- | --- |
| B1 | ~3 |

Target: T1, human MUC1 on cells (DA3-TM …)
Assay: flow cytometry on DA3-TM cells; table row 2 of 5, about 11 nM by the matching point in FIG. 3A

| Binder | Geometric Mean : FL6-A |
| --- | --- |
| B2 | 15000 |
| B4 | 22300 |
| B5 | 10000 |
| B7 | 23700 |

Target: T1, human MUC1 on cells (DA3-TM …)
Assay: flow cytometry on DA3-TM cells; table row 3 of 5, about 3.7 nM by the matching point in FIG. 3A

| Binder | Geometric Mean : FL6-A |
| --- | --- |
| B2 | 11800 |
| B4 | 17600 |
| B5 | 4900 |
| B7 | 21300 |

Target: T1, human MUC1 on cells (DA3-TM …)
Assay: flow cytometry on DA3-TM cells; table row 4 of 5, about 1.2 nM by the matching point in FIG. 3A

| Binder | Geometric Mean : FL6-A |
| --- | --- |
| B2 | 6400 |
| B4 | 9700 |
| B5 | 1870 |
| B7 | 14600 |

Target: T1, human MUC1 on cells (DA3-TM …)
Assay: flow cytometry on DA3-TM cells; table row 5 of 5, about 0.4 nM by the matching point in FIG. 3A

| Binder | Geometric Mean : FL6-A |
| --- | --- |
| B2 | 2860 |
| B4 | 5320 |
| B5 | 727 |
| B7 | 7990 |
